{"source": "patent US20200262867A1", "about": "(WNTRX PHARMACEUTICALS, published 2020)", "note": "Bridges are numbered along the chain shown (N, C = ends). Primed or numbered codes have the meaning given here. Where no end group is shown, it is not given here. [ ]: non-standard residue; d: D form. S5′ = (S)-2-(4'-pentenyl)alanine, olefinic stapling residue closed by ring-closing metathesis; NMeR′ = N-methylarginine (methylation site not shown in the text); 2Nal = N[C@@H](Cc1ccc2ccccc2c1)C(=O)O; pentenylAla = 2-(4'-pentenyl)alanine; NMeR = CN[C@@H](CCCNC(=N)N)C(=O)O; Ala(cPr) = N[C@@H](CC1CC1)C(=O)O; NMeT = CN[C@H](C(=O)O)[C@@H](C)O; hArg = N=C(N)NCCCC[C@H](N)C(=O)O; NMeQ = CN[C@@H](CCC(N)=O)C(=O)O; dNMeQ = CN[C@H](CCC(N)=O)C(=O)O; Cha = N[C@@H](CC1CCCCC1)C(=O)O; NMeL = CN[C@@H](CC(C)C)C(=O)O; αMeL = CC(C)C[C@](C)(N)C(=O)O; Cba = N[C@@H](CC1CCC1)C(=O)O; S5 = C=CCCC[C@](C)(N)C(=O)O; Nle = CCCC[C@H](N)C(=O)O; Abu = CC[C@H](N)C(=O)O; βAla = NCCC(=O)O", "data": [{"target": "T1, β-catenin (UniProt P35222 1-781, limits assumed)", "T1 construct": "also called beta-catenin", "T1 sequence (looked up)": "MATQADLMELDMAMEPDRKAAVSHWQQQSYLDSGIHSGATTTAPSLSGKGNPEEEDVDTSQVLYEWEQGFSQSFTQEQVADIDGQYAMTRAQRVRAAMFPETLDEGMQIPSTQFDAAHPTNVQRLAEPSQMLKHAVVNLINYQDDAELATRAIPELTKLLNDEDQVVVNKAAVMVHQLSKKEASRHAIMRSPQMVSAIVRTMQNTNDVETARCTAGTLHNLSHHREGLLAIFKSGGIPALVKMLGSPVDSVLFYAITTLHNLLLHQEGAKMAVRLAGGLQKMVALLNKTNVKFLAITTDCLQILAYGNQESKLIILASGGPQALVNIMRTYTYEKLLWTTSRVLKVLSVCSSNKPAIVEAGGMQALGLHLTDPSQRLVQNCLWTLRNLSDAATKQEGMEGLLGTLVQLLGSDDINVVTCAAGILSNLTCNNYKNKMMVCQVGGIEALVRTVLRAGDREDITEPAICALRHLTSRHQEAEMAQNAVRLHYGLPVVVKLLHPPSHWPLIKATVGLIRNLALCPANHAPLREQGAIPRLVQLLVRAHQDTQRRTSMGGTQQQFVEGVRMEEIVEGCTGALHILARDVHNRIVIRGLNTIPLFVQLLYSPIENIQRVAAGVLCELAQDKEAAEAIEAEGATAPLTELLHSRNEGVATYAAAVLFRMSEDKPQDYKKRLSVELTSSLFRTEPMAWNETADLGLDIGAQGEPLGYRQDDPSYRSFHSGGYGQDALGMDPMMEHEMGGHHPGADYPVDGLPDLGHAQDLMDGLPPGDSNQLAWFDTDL", "experiment": "ALPHA Screen (BCL9/β-catenin);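 note: bead proximity readout with the polypeptide linked to donor beads and β-catenin fixed on acceptor beads, their binding bringing the beads close enough to emit signal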", "units": {"IC50": "µM"}, "source_text": "In this assay, a polypeptide is conjugated to a donor bead and its target protein (i.e., β-catenin) is attached to an acceptor bead. When the two beads are in proximity due to the binding of the polypeptide to the target protein, a signal is generated and the binding affinity of the polypeptide can be quantitatively calculated. The assay may be conducted in the presence or absence of an unconjugated control polypeptide.", "values": [{"binder": "HRERSLQTLRDIQRML[2Nal]", "note": "[SEQ ID NO: 61]", "IC50": 1.38}, {"binder": "Ac-RE[S5]SLQ[S5]LR[S5]IQR[S5]L[2Nal]-NH2 (staple 10-14, 3-7; not fully specified; printed as REXSLQXLRZIQRZL(2-Nal))", "note": "[SEQ ID NO: 39]", "IC50": 2.19}, {"binder": "HRERSLQTLR[Nle]IQR[Nle]L[2Nal]", "note": "[SEQ ID NO: 62]", "IC50": 0.84}, {"binder": "Ac-RE[S5]SLQ[S5]LR[S5]IQR[S5]L[2Nal][βAla][βAla]-NH2 (staple 10-14, 3-7; not fully specified; printed as REXaa1SLQXaa2LRXaa3IQRXaa4L(2-Nal)(β-Ala)(β-Ala))", "note": "[SEQ ID NO: 40]", "IC50": 2.39}, {"binder": "EHRERSLQTLRDIQRML[2Nal]", "note": "[SEQ ID NO: 63]", "IC50": 2.5}, {"binder": "Ac-LQTLR[S5]IQR[S5]L[2Nal]P-NH2 (staple 6-10; not fully specified; printed as LQTLRXIQRXL(2-Nal)P)", "note": "[SEQ ID NO: 33]", "IC50": 11.8}, {"binder": "EHRERSLQTLR[Nle]IQR[Nle]L[2Nal]", "note": "[SEQ ID NO: 64]", "IC50": 1.73}, {"binder": "QLEHRERSLQTLRDIQRML[2Nal]", "note": "[SEQ ID NO: 65]", "IC50": 1.64}, {"binder": "QLEHRERSLQTLR[Nle]IQR[Nle]L[2Nal]", "note": "[SEQ ID NO: 66]", "IC50": 0.73}, {"binder": "QLEHRERSL[Nle]TLR[Nle]IQRML[2Nal]", "note": "[SEQ ID NO: 67]", "IC50": 1.08}, {"binder": "LR[Nle]IQR[Nle]L[2Nal]", "note": "[SEQ ID NO: 50]", "IC50": 2.54}, {"binder": "Ac-QLEHRERSL[S5]TLR[S5]IQR[Abu]L[2Nal][βAla][βAla]-NH2 (staple 10-14)", "note": "[SEQ ID NO: 78]", "IC50": 0.09}, {"binder": "Ac-HRE[S5′]SLQ[S5′]LR[Nle]IQR[Nle]L[2Nal]-OH (staple 4-8)", "note": "[SEQ ID NO: 80]", "IC50": 5.33}, {"binder": "Ac-HRE[S5′]SLQ[S5′]LR[Nle]IQR[Nle][Cba][2Nal]-OH (staple 4-8)", "note": "[SEQ ID NO: 81]", "IC50": 45.5}, {"binder": "Ac-LQTLR[S5]IQR[S5]L[2Nal]PD-NH2 (staple 6-10; not fully specified; printed as LQTLRXIQRXL(2-Nal)PD)", "note": "[SEQ ID NO: 32]", "IC50": 12.2}, {"binder": "H-HRE[S5′]SLQ[S5′]LR[S5′]IQR[S5′][Cba][2Nal]-OH (staple 11-15, 4-8)", "note": "[SEQ ID NO: 82]", "IC50": 1.01}, {"binder": "Ac-HRE[S5′]SLQ[S5′]LR[S5′]IQQ[S5′][Cba][2Nal]-OH (staple 11-15, 4-8)", "note": "[SEQ ID NO: 83]", "IC50": 50}, {"binder": "Ac-HRQ[S5′]SLQ[S5′]LR[S5′]IQR[S5′][Cba][2Nal]-NH2 (staple 11-15, 4-8)", "note": "[SEQ ID NO: 87]", "IC50": 2.66}, {"binder": "Ac-HR[S5′]RSL[S5′]TLR[S5′]IQR[S5′][Cba][2Nal]-NH2 (staple 11-15, 3-7)", "note": "[SEQ ID NO: 94]", "IC50": 0.175}, {"binder": "R[pentenylAla][Ala(cPr)][dNMeQ][pentenylAla][Ala(cPr)]R[pentenylAla]IQR[pentenylAla][Ala(cPr)][2Nal][βAla][βAla] (staple 8-12, 2-5)", "note": "[SEQ ID NO: 89]", "IC50": 2.46}, {"binder": "Ac-LQTL[NMeR][S5]IQR[S5][Cba][2Nal]-NH2 (staple 6-10; not fully specified (residue 2))", "note": "[SEQ ID NO: 117]", "IC50": 4.23}, {"binder": "LQTLRDIQRML[2Nal]", "note": "[SEQ ID NO: 51]", "IC50": 5.78}, {"binder": "Ac-[NMeL]QTLR[S5]IQR[S5][Cba][2Nal]-NH2 (staple 6-10; not fully specified (residue 2); printed as (Me-L)(N-MeQ)TLRXIQRX(CBA)(2-Nal))", "note": "[SEQ ID NO: 118]", "IC50": 6.33}, {"binder": "Ac-LQTLR[S5]IQR[S5][Ala(cPr)][2Nal]-NH2 (staple 6-10; not fully specified (residue 2); printed as LN(Me-Gln)TLRXIQRX(Cpa)(2-Nal))", "note": "[SEQ ID NO: 119]", "IC50": 15.8}, {"binder": "HOCH2CH2CO-LQTLR[S5]IQR[S5][Cba][2Nal]-NH2 (staple 6-10; not fully specified (residue 2); printed as L(N-methylQ)TLRXIQRX(CBA)(2-Nal))", "note": "[SEQ ID NO: 120]", "IC50": 5.44}, {"binder": "Ac-LQ[NMeT]LR[S5]IQR[S5][Cba][2Nal]-NH2 (staple 6-10; not fully specified (residue 2); printed as L(N-methylQ)(N-methylT)LRXIQRX(CBA)(2-Nal))", "note": "[SEQ ID NO: 121]", "IC50": 5.01}, {"binder": "Ac-LQTLR[S5]IQR[S5][Cha][2Nal]-NH2 (staple 6-10; not fully specified (residue 2); printed as L(N-methylQ)TLRXIQRX(Cha)(2-Nal))", "note": "[SEQ ID NO: 122]", "IC50": 7.17}, {"binder": "Ac-L[NMeQ]TL[NMeR′][S5]IQR[S5][Cba][2Nal]-NH2 (staple 6-10; not fully specified; printed as L(N-methylQ)TL(N-methylR)XIQRX(CBA)(2-Nal))", "note": "[SEQ ID NO: 124]", "IC50": 2.74}, {"binder": "Ac-L[NMeQ]TLR[S5]IQ[NMeR′][S5][Cba][2Nal]-NH2 (staple 6-10; not fully specified; printed as L(N-methylQ)TLRXIQ(N-methylR)X(CBA)(2-Nal))", "note": "[SEQ ID NO: 125]", "IC50": 10.6}, {"binder": "Ac-LQTLR[S5]IQR[S5][Cba][2Nal]-NH2 (staple 6-10)", "note": "[SEQ ID NO: 107]", "IC50": 0.316}, {"binder": "Ac-L[NMeQ]T[αMeL]R[S5]IQR[S5][Cba][2Nal]-NH2 (staple 6-10; not fully specified; printed as L(N-methylQ)T(α-methylL)RXIQRX(CBA)(2-Nal))", "note": "[SEQ ID NO: 126]", "IC50": 7.43}, {"binder": "Ac-LQTLR[S5]IQR[S5][Cha][2Nal]-NH2 (staple 6-10; SMILES CC[C@H](C)[C@@H]1NC(=O)[C@@](C)(NC(=O)[C@H](CCCNC(=N)N)NC(=O)[C@H](CC(C)C)NC(=O)[C@@H](NC(=O)[C@H](CCC(N)=O)NC(=O)[C@H](CC(C)C)NC(C)=O)[C@@H](C)O)CCCC=CCCC[C@@](C)(C(=O)N[C@@H](CC2CCCCC2)C(=O)N[C@@H](Cc2ccc3ccccc3c2)C(N)=O)NC(=O)[C@H](CCCNC(=N)N)NC(=O)[C@H](CCC(N)=O)NC1=O)", "note": "[SEQ ID NO: 127]", "IC50": 10.1}, {"binder": "Ac-LQTL[NMeR′][S5]IQ[NMeR′][S5][Cba][2Nal]-NH2 (staple 6-10; not fully specified (residue 2); printed as L(N-methylQ)TL(N-methylR)XIQ(N-methylR)X(CBA)(2-Nal))", "note": "[SEQ ID NO: 128]", "IC50": 29.5}, {"binder": "LQTLR[Nle]IQR[Nle]L[2Nal]", "note": "[SEQ ID NO: 52]", "IC50": 4.7}, {"binder": "Ac-L[NMeQ]TL[hArg][S5]IQR[S5][Cba][2Nal]-NH2 (staple 6-10; not fully specified; printed as L(N-methylQ)TL(homoR)XIQRX(CBA)(2-Nal))", "note": "[SEQ ID NO: 132]", "IC50": 11.2}, {"binder": "Ac-L[NMeQ]TLR[S5]IQ[hArg][S5][Cba][2Nal]-NH2 (staple 6-10; also: N-methyl-Gln at 2: filing says both D and L)", "note": "[SEQ ID NO: 133]", "IC50": 9.2}]}]}
